Laboratory results as given in US20220411483A1 (Chugai, published 2022).

T1: FcγRIIb extracellular domain with C-terminal His tag (human, UniProt P31994 43-217)
T1 construct: extracellular domain; also called FcgRIIb; not shown: His tag at the C terminus
T1 sequence (looked up): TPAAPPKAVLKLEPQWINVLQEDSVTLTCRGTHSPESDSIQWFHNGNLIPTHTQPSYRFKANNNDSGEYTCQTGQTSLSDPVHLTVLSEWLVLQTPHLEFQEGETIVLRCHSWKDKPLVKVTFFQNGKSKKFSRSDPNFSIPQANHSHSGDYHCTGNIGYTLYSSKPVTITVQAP

T2: FcγRIIa R type extracellular domain with C-terminal His tag (human, UniProt P12318 34-217)
T2 construct: extracellular domain; also called FcgRIIaR; not shown: His tag at the C terminus
T2 sequence (looked up): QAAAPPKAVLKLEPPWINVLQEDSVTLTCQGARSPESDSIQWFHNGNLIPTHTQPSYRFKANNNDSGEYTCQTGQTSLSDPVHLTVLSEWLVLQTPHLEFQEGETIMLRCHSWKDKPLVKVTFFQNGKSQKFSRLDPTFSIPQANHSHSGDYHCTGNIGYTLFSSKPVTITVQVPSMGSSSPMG

B1: IL6R-BP262/IL6R-L (antibody, human IgG1, kappa, name in EU numbering)
heavy: QVQLQESGPGLVKPSETLSLTCAVSGHSISHDHAWSWVRQPPGEGLEWIGFISYSGITNYNPSLQGRVTISRDNSKNTLYLQMNSLRAEDTAVYYCARSLARTTAMDYWGEGTLVTVSSASTKGPSVFPLAPSSKSTSGGTAALGCLVKDYFPEPVTVSWNSGALTSGVHTFPAVLQSSGLYSLSSVVTVPSSSLGTQTYICNVNHKPSNTKVDKKVEPKSCDKTHTCPPCPAPELLGDDSVFLFPPKPKDTLMISRTPEVTCVVVDVSEEDGEVKFNWYVDGVEVHNAKTKPREEQYNSTYRVVSVLTVLHQDWLNGKEYKCKVSNKALPAPIEKTISKAKGQPREPQVYTLPPSRDELTKNQVSLTCLVKGFYPSDIAVEWESNGQPENNYKTTPPVLDSDGSFFLYSKLTVDKSRWQQGNVFSCSVMHEALHNHYTQESLSLSP
light: not shown
notes: human IgG1
B2: IL6R-BP483/IL6R-L (antibody, human IgG1, kappa, name in EU numbering)
heavy: QVQLQESGPGLVKPSETLSLTCAVSGHSISHDHAWSWVRQPPGEGLEWIGFISYSGITNYNPSLQGRVTISRDNSKNTLYLQMNSLRAEDTAVYYCARSLARTTAMDYWGEGTLVTVSSASTKGPSVFPLAPSSKSTSGGTAALGCLVKDYFPEPVTVSWNSGALTSGVHTFPAVLQSSGLYSLSSVVTVPSSSLGTQTYICNVNHKPSNTKVDKKVEPKSCDKTHTCPPCPAPDLLGDDSVFLFPPKPKDTLMISRTPEVTCVVVDLAEEDGEVKFNWYVDGVEVHNAKTKPREEQYNSTYRVVSVLTVLHQDWLNGKEYKCKVSNKALPAPIEKTISKAKGQPREPQVYTLPPSRDELTKNQVSLTCLVKGFYPSDIAVEWESNGQPENNYKTTPPVLDSDGSFFLYSKLTVDKSRWQQGNVFSCSVMHEALHNHYTQESLSLSP
light: not shown
notes: human IgG1
B3: IL6R-BP269/IL6R-L (antibody, human IgG1, kappa, name in EU numbering)
heavy: QVQLQESGPGLVKPSETLSLTCAVSGHSISHDHAWSWVRQPPGEGLEWIGFISYSGITNYNPSLQGRVTISRDNSKNTLYLQMNSLRAEDTAVYYCARSLARTTAMDYWGEGTLVTVSSASTKGPSVFPLAPSSKSTSGGTAALGCLVKDYFPEPVTVSWNSGALTSGVHTFPAVLQSSGLYSLSSVVTVPSSSLGTQTYICNVNHKPSNTKVDKKVEPKSCDKTHTCPPCPAPELLGDDSVFLFPPKPKDTLMISRTPEVTCVVVDVSEEDGEVKFNWYVDGVEVHNAKTKPREEQDNSTYRVVSVLTVLHQDWLNGKEYKCKVSNKALPAPIEKTISKAKGQPREPQVYTLPPSRDELTKNQVSLTCLVKGFYPSDIAVEWESNGQPENNYKTTPPVLDSDGSFFLYSKLTVDKSRWQQGNVFSCSVMHEALHNHYTQESLSLSP
light: not shown
notes: human IgG1
B4: IL6R-BP500/IL6R-L (antibody, human IgG1, kappa, name in EU numbering)
heavy: QVQLQESGPGLVKPSETLSLTCAVSGHSISHDHAWSWVRQPPGEGLEWIGFISYSGITNYNPSLQGRVTISRDNSKNTLYLQMNSLRAEDTAVYYCARSLARTTAMDYWGEGTLVTVSSASTKGPSVFPLAPSSKSTSGGTAALGCLVKDYFPEPVTVSWNSGALTSGVHTFPAVLQSSGLYSLSSVVTVPSSSLGTQTYICNVNHKPSNTKVDKKVEPKSCDKTHTCPPCPAPELLGDDSVFLFPPKPKDTLMISRTPEVTCVVIDVAEEDGEVKFNWYVDGVEVHNAKTKPREEQDNSTYRVVSVLTVLHQDWLNGKEYKCKVSNKALPAPIEKTISKAKGQPREPQVYTLPPSRDELTKNQVSLTCLVKGFYPSDIAVEWESNGQPENNYKTTPPVLDSDGSFFLYSKLTVDKSRWQQGNVFSCSVMHEALHNHYTQESLSLSP
light: not shown
notes: human IgG1
B5: IL6R-BP481/IL6R-L (antibody, human IgG1, kappa, name in EU numbering)
heavy: QVQLQESGPGLVKPSETLSLTCAVSGHSISHDHAWSWVRQPPGEGLEWIGFISYSGITNYNPSLQGRVTISRDNSKNTLYLQMNSLRAEDTAVYYCARSLARTTAMDYWGEGTLVTVSSASTKGPSVFPLAPSSKSTSGGTAALGCLVKDYFPEPVTVSWNSGALTSGVHTFPAVLQSSGLYSLSSVVTVPSSSLGTQTYICNVNHKPSNTKVDKKVEPKSCDKTHTCPPCPAPDLLGDDSVFLFPPKPKDTLMISRTPEVTCVVIDVAEEDGEVKFNWYVDGVEVHNAKTKPREEQYNSTYRVVSVLTVLHQDWLNGKEYKCKVSNKALPAPIEKTISKAKGQPREPQVYTLPPSRDELTKNQVSLTCLVKGFYPSDIAVEWESNGQPENNYKTTPPVLDSDGSFFLYSKLTVDKSRWQQGNVFSCSVMHEALHNHYTQESLSLSP
light: not shown
notes: human IgG1
B6: IL6R-BP494/IL6R-L (antibody, human IgG1, kappa, name in EU numbering)
heavy: QVQLQESGPGLVKPSETLSLTCAVSGHSISHDHAWSWVRQPPGEGLEWIGFISYSGITNYNPSLQGRVTISRDNSKNTLYLQMNSLRAEDTAVYYCARSLARTTAMDYWGEGTLVTVSSASTKGPSVFPLAPSSKSTSGGTAALGCLVKDYFPEPVTVSWNSGALTSGVHTFPAVLQSSGLYSLSSVVTVPSSSLGTQTYICNVNHKPSNTKVDKKVEPKSCDKTHTCPPCPAPELLGDDSVFLFPPKPKDTLMISRTPEVTCVVVDVAEEDGEVKFNWYVDGVEVHNAKTKPREEQDNSTYRVVSVLTVLHQDWLNGKEYKCKVSNKALPRPIEKTISKAKGQPREPQVYTLPPSRDELTKNQVSLTCLVKGFYPSDIAVEWESNGQPENNYKTTPPVLDSDGSFFLYSKLTVDKSRWQQGNVFSCSVMHEALHNHYTQESLSLSP
light: not shown
notes: human IgG1
B7: IL6R-BP492/IL6R-L (antibody, human IgG1, kappa, name in EU numbering)
heavy: QVQLQESGPGLVKPSETLSLTCAVSGHSISHDHAWSWVRQPPGEGLEWIGFISYSGITNYNPSLQGRVTISRDNSKNTLYLQMNSLRAEDTAVYYCARSLARTTAMDYWGEGTLVTVSSASTKGPSVFPLAPSSKSTSGGTAALGCLVKDYFPEPVTVSWNSGALTSGVHTFPAVLQSSGLYSLSSVVTVPSSSLGTQTYICNVNHKPSNTKVDKKVEPKSCDKTHTCPPCPAPELLGGDSVFLFPPKPKDTLMISRTPEVTCVVIDVAEEDGEVKFNWYVDGVEVHNAKTKPREEQYNSTYRVVSVLTVLHQDWLNGKEYKCKVSNKALPAPIEKTISKAKGQPREPQVYTLPPSRDELTKNQVSLTCLVKGFYPSDIAVEWESNGQPENNYKTTPPVLDSDGSFFLYSKLTVDKSRWQQGNVFSCSVMHEALHNHYTQESLSLSP
light: not shown
notes: human IgG1
B8: IL6R-BP484/IL6R-L (antibody, human IgG1, kappa, name in EU numbering)
heavy: QVQLQESGPGLVKPSETLSLTCAVSGHSISHDHAWSWVRQPPGEGLEWIGFISYSGITNYNPSLQGRVTISRDNSKNTLYLQMNSLRAEDTAVYYCARSLARTTAMDYWGEGTLVTVSSASTKGPSVFPLAPSSKSTSGGTAALGCLVKDYFPEPVTVSWNSGALTSGVHTFPAVLQSSGLYSLSSVVTVPSSSLGTQTYICNVNHKPSNTKVDKKVEPKSCDKTHTCPPCPAPDLLGDDSVFLFPPKPKDTLMISRTPEVTCVVVDVAEDDGEVKFNWYVDGVEVHNAKTKPREEQYNSTYRVVSVLTVLHQDWLNGKEYKCKVSNKALPAPIEKTISKAKGQPREPQVYTLPPSRDELTKNQVSLTCLVKGFYPSDIAVEWESNGQPENNYKTTPPVLDSDGSFFLYSKLTVDKSRWQQGNVFSCSVMHEALHNHYTQESLSLSP
light: not shown
notes: human IgG1
B9: IL6R-BP479/IL6R-L (antibody, human IgG1, kappa, name in EU numbering)
heavy: QVQLQESGPGLVKPSETLSLTCAVSGHSISHDHAWSWVRQPPGEGLEWIGFISYSGITNYNPSLQGRVTISRDNSKNTLYLQMNSLRAEDTAVYYCARSLARTTAMDYWGEGTLVTVSSASTKGPSVFPLAPSSKSTSGGTAALGCLVKDYFPEPVTVSWNSGALTSGVHTFPAVLQSSGLYSLSSVVTVPSSSLGTQTYICNVNHKPSNTKVDKKVEPKSCDKTHTCPPCPAPDLLGDDSVFLFPPKPKDTLMISRTPEVTCVVIDLAEEDGEVKFNWYVDGVEVHNAKTKPREEQYNSTYRVVSVLTVLHQDWLNGKEYKCKVSNKALPAPIEKTISKAKGQPREPQVYTLPPSRDELTKNQVSLTCLVKGFYPSDIAVEWESNGQPENNYKTTPPVLDSDGSFFLYSKLTVDKSRWQQGNVFSCSVMHEALHNHYTQESLSLSP
light: not shown
notes: human IgG1

Key:
[1] = target: T1, FcγRIIb extracellular domain with …; assay: SPR; KD of IL6R-B3/IL6R-L divided by KD of variant
[2] = target: T2, FcγRIIa R type extracellular domain …; assay: SPR; KD of IL6R-B3/IL6R-L divided by KD of variant
[3] = target: T3, FcγRIa extracellular domain with C-terminal His tag (human, UniProt P12314 16-292); assay: SPR, antibody captured, FcgR analyte
T3 construct: also called FcgRIa; CD64; not shown: His tag at the C terminus

[4] = target: T1, FcγRIIb extracellular domain with …; assay: SPR, antibody captured, FcgR analyte
[5] = target: T2, FcγRIIa R type extracellular domain …; assay: SPR, antibody captured, FcgR analyte

T3 sequence (P12314 16-292): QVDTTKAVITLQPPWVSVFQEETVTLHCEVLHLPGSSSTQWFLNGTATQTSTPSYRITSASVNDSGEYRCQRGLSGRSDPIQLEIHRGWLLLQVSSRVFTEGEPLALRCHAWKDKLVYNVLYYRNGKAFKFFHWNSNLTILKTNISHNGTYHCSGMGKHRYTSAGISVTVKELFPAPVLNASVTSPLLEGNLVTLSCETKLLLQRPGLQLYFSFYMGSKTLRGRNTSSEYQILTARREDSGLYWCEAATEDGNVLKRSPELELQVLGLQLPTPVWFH

| Binder | Relative FcgRIIb-binding Activity [1] | Relative FcgRIIaR-binding Activity [2] | Kd [3] | Kd [4] | Kd [5] |
| --- | --- | --- | --- | --- | --- |
| B1 | 25.8 | 0.5 | 10 nM | 120 nM | 2000 nM |
| B2 | 39.6 | 0.8 | 1.3 nM | 78 nM | 1300 nM |
| B3 | 27.3 | 0.5 | 14 nM | 110 nM | 2200 nM |
| B4 | 128 | 1.5 | 2.3 nM | 24 nM | 720 nM |
| B5 | 159 | 2.7 | 1 nM | 19 nM | 400 nM |
| B6 | 470 | 4.3 | 3.9 nM | 6.6 nM | 250 nM |
| B7 | 131 | 1.2 | 0.79 nM | 24 nM | 920 nM |
| B8 | 67.6 | 1.4 | 0.82 nM | 46 nM | 780 nM |
| B9 | 55.3 | 1.2 | 5.3 nM | 56 nM | 900 nM |
